The conditions of the data set: glycan lost.

Experimental findings from publication PMC9400332 are described below.

B1: Cedar virus fusion protein F (CedV F): g2 (protein)
parent chain: MSNKRTTVLIIISYTLFYLNNAAIVGFDFDKLNKIGVVQGRVLNYKIKGDPMTKDLVLKFIPNIVNITECVREPLSRYNETVRRLLLPIHNMLGLYLNNTNAKMTGLMIAGVIMGGIAIGIATAAQITAGFALYEAKKNTENIQKLTDSIMKTQDSIDKLTDSVGTSILILNKLQTYINNQLVPNLELLSCRQNKIEFDLMLTKYLVDLMTVIGPNINNPVNKDMTIQSLSLLFDGNYDIMMSELGYTPQDFLDLIESKSITGQIIYVDMENLYVVIRTYLPTLIEVPDAQIYEFNKITMSSNGGEYLSTIPNFILIRGNYMSNIDVATCYMTKASVICNQDYSLPMSQNLRSCYQGETEYCPVEAVIASHSPRFALTNGVIFANCINTICRCQDNGKTITQNINQFVSMIDNSTCNDVMVDKFTIKVGKYMGRKDINNINIQIGPQIIIDKVDLSNEINKMNQSLKDSIFYLREAKRILDSVNISLISPSVQLFLIIISVLSFIILLIIIVYLYCKSKHSYKYNKFIDDPDYYNDYKRERINGKASKSNNIYYVGD
B1: the localisation_or_trafficking entry was “increases”; the “other: cell-cell fusion activity” value was “decreases”; the “other: cell-cell fusion activity, fold_change” value is listed as “decreases”; the “other: proteolytic processing” value was “no change”.

B2: Cedar virus fusion protein F (CedV F): g1 (protein)
parent chain: B1 parent chain
Regarding B2, the expression_or_secretion entry is “no change” and the localisation_or_trafficking result is recorded as “decreases”.

B3: Cedar virus fusion protein F (CedV F): g4 (protein)
parent chain: B1 parent chain
For the protein B3, the expression_or_secretion entry was “no change”.

B4: Cedar virus fusion protein F (CedV F): g3 (protein)
parent chain: B1 parent chain
As to B4, the localisation_or_trafficking entry was “decreases” and the “other: proteolytic processing” value is listed as “no change”.

B5: Cedar virus fusion protein F (CedV F): g6 (protein)
parent chain: B1 parent chain
B5: the localisation_or_trafficking result is reported as “decreases” and the “other: proteolytic processing” value is on record as “no change”.
